Data set [1] can be described thus: Stability analysis of Cy7.5-labeled peptides in phosphate-buffered saline (HPLC). It counts as physicochemical. As for the experimental part:
After synthesis the chemical purity of the peptides was analyzed by reversed-phase chromatography; we used high-efficiency liquid chromatography: LC-20AD XR (Shimadzu, Japan) equipped with a spectrophotometric detector and a column Luna C18(2) ([…]). The elution was gradient, its mobile phase consisted of deionized water and acetonitrile. The acetonitrile content in a mobile phase was increased from 5% at the beginning of the study to 100% at the end of the study within 40 min. The flow rate was 1 ml/min. Detection was performed at a wavelength of 215 nm, using mass spectrometry with the MALDI-TOF MS FLEX mass spectrometer (Bruker Daltonics, Germany).
We studied the stability of both — the whole structures (Cy7.5-BBN/C1-C2, Cy7.5-GRP, Cy7.5-U5-Sth1a) and also the peptide complexes with Cy7.5. So, all peptides were incubated in the phosphate-buffered saline (pH 7.4) for 144 h, at 37°С. Every 24 h we drew the samples and analyzed them using high-efficiency liquid chromatography LC-20AD XR (Shimadzu, Japan), as described above. The stability of the complex with the dye was fixed similarly to the peptide stability fixation, as following from the accumulation of the free dye in samples.

Data set [2] has as its system patients. To be noted: patients with AMBA therapy; cited from earlier work. From the text: The key feature of these peptides is their ability to internalize inside the cells, acting as receptor agonists. At early stages of developing pharmaceuticals, this ability was an important condition for high and long-term absorption of a tumor by a pharmaceutical. However, currently, it appears to be a substantial deficiency, since radiolabeled agonists provide high absorption of radionuclides. One more major drawback of the ligands based on GRPR agonists is their absorption by normal non-tumor cells, particularly, the pancreatic cells. So, the potent GRPR agonist — AMBA (DOTA-Gl ...

In data set [3] the test system is Nu/Nu mice with PC-3 prostate cancer tumor. In words: In vivo surface fluorescent imaging of biodistribution. Set-up: species or system mouse. To be noted: Cy7.5-labeled peptides, i.v. 19 nmol/kg, Nu/Nu mice with PC-3 tumor, 2 days, n=3. The protocol:
The study was carried out on Nu/Nu line male mice aged 9–10 weeks, weighing 26–28 g.
(§1) Since Cy7.5-GRP peptide stability was limited, firstly, 48 h at 37°С in phosphate-buffered saline, there were two time points used in the study — 2 and 5 days. Two weeks prior to the investigation, the animals were subcutaneously inoculated into the right side with PC-3 cells (1 mil cells in RPMI-1640, 100 μl (PanEco, Russia), and matrigel, 100 μl (ABW, China)) to form a tumor. When the tumor reached its optimal size (150–200 mm3), the animals (n=10) were divided into the following groups: group 1 animals were administered a pure dye (n=1); group 2 — were given Cy7.5-GRP peptide (n=3); group 3 — were administered Cy7.5-U5-Sth1a toxin (n=3); group 4 — had Cy7.5-BBN/C1-C2 administered (n=3). The animals were anesthetized with 3% isoflurane inhalation (Chemical Iberica, Spain) at the rate of 1 L/min within 10 min, then the dose was reduced up to 2%. The peptides were injected into the caudal vein at the rate of 19 nmol/kg. […] The regions of interest were manually determined along the organ borderline; then using the software, we calculated the total fluorescence for each region. Finally, the average fluorescence of the peptides in the organ was calculated, it being normalized to the organ weight.

For data set [4], the system named is PC-3 prostate cancer solid tumor expressing GRPR. As to the kind of experiment: Tumor fluorescent imaging on days 2 and 5. It counts as in vivo, mouse. To be noted: Cy7.5-labeled peptides, i.v. 19 nmol/kg, PC-3 tumor in Nu/Nu mice. As for the experimental part: as §1
Data set [5] concerns Nu/Nu mice with PC-3 prostate cancer tumor. In words: Semiquantitative ex vivo organ biodistribution on day 5 (fluorescence normalized to organ weight). To be noted: Cy7.5-labeled peptides, i.v. 19 nmol/kg, day 5, harvested organs, n=3. It counts as in vivo, mouse. As for the experimental part: as §1
The conditions of data set [6]: cited from earlier work. The text has this: Currently, there have been introduced into clinical practice several radiolabeled ligands targeting GRPR and based on a gastrin-releasing peptide (GRP) analog isolated from amphibian — bombesin (BBN) [[5–8]]. […] In addition to the high concentration of radiopharmaceuticals in non-target organs, there is one more significant problem complicating cancer therapy — pharmaceutical stability.

No end group written: not given here.

On to “Cy7.5-GRP: GRP peptide labeled with Cyanine7.5 fluorescent dye (VPLPAGGGTVLTKMYPRGNHWAVGHLM; ends and bridges not checked; also: Cy7.5 NHS ester bound to peptide amino group (N-terminus or Lys not given here); UniProt P07492 24-50, looked up)”, for which the “time to which peptide stability was limited” value in data set [1] (37°C in phosphate-buffered saline) is on record as 48 h. The “chemical purity / stability after 48 h” value in data set [1] (phosphate-buffered saline pH 7.4, 37°C, 48 h, reversed-phase HPLC C18, detection 215 nm) amounted to 64.5%. Besides, the “chemical purity / stability after 144 h” value in data set [1] (phosphate-buffered saline pH 7.4, 37°C, 144 h, samples every 24 h, reversed-phase HPLC C18, detection 215 nm) stood at 46.8%. In addition, the “chemical purity / stability at the start of incubation” value in data set [1] (phosphate-buffered saline pH 7.4, 37°C, start of incubation, reversed-phase HPLC C18, detection 215 nm) came out at 95.7%.
With “DOTA-Gly-4-aminobenzoyl-BBN(7–14) [AMBA]”, in data set [2], the “absorption by normal organs in patients” value is “significant absorption of the pharmaceutical by the pancreas and the gastrointestinal tract”.
Take “GRP: a short peptide with affinity to GRPR receptors (VPLPAGGGTVLTKMYPRGNHWAVGHLM; ends and bridges not checked; UniProt P07492 24-50, looked up)”: in data set [3], the “main region of binding / accumulation on day 2” value is recorded as “the spleen” and the “organ of excretion on day 2” value was “the kidney”. The “localization of labeled peptide in the tumor on day 2” value in data set [4] was “detected in the tumor to a greater extent than BBN/C1-C2”. Also, in data set [5], the “organs of accumulation / localization, ex vivo” value was “localized in the stomach and the pancreas”.
Take N4-AMA-DIG-[DPhe6,Sar11,LeuNHEt13]BBN: the resistance to proteolysis result in data set [6] is “high resistance to proteolysis”.
bombesin: in data set [6], the proteolytic stability result was “low proteolytic stability”.

The record behind these values is PMC12892846, “Biodistribution of the Bombesin Receptor-Targeted Radiopharmaceutical Precursor BBN/C1-C2 in a Prostate Cancer Model” (Modern Technologies in Medicine, 2025).
